Measurements: paper PMC8386582 (Biomaterials, 2020)

Biological target: CD19 (Homo sapiens (Raji, SU-DHL-7 cells), UniProt P15391)
Test: flow cytometry on cells

CD19, sequence (P15391 20-556): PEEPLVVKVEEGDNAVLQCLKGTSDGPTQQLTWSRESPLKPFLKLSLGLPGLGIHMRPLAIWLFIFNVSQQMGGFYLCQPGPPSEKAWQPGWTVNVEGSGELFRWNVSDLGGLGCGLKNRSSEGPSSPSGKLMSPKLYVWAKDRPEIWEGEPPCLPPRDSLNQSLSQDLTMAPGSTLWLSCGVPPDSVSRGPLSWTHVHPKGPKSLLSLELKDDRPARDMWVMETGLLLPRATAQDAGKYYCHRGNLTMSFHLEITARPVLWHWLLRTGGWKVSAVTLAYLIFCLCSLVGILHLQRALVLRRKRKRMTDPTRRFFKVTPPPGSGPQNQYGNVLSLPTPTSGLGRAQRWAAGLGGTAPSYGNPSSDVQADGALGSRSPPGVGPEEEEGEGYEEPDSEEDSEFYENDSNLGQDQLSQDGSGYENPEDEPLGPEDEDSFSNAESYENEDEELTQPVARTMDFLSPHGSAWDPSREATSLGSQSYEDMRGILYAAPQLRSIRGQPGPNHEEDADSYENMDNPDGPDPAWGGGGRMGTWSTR

binding result: binds
B1: aCD19A (anti-CD19-A192) Nanoworm (scFv, V domains shown)
VH: QVQLQQSGAELVRPGSSVKISCKASGYAFSSYWMNWVKQRPGQGLEWIGQIWPGDGDTNYNGKFKGKATLTADESSSTAYMQLSSLASEDSAVYFCARRETTTVGRYYYAMDYWGQGTTVTVSS
VL: DIQLTQSPASLAVSLGQRATISCKASQSVDYDGDSYLNWYQQIPGQPPKLLIYDASNLVSGIPPRFSGSGSGTDFTLNIHPVEKVDAATYHCQQSTEDPWTFGGGTKLEIK
